According to patent US20080305122A1:

Assays:
[1] = molecular target: PGCC(95-104) epitope peptide (Ac-…-NH2), pigeon cytochrome C (pigeon); assay: ELISA, coated PGCC(95-104) peptide, control mouse serum, anti-mouse IgG1 or IgG2a detection
[2] = molecular target: HIV gp160(843-855) peptide (HIV); assay: ELISA, coated HIV gp160(843-855) peptide, control mouse serum, anti-mouse IgG1 or IgG2a detection

Row | Substance | ELISA absorbance at 450 nm, serum dilution 1:20 (absorbance (450 nm)) [1] | ELISA absorbance at 450 nm, serum dilution 1:60 (absorbance (450 nm)) [1] | ELISA absorbance at 450 nm, serum dilution 1:180 (absorbance (450 nm)) [1] | ELISA absorbance at 450 nm, serum dilution 1:540 (absorbance (450 nm)) [1] | ELISA absorbance at 450 nm, serum dilution 1:1620 (absorbance (450 nm)) [1] | ELISA absorbance at 450 nm, serum dilution 1:4860 (absorbance (450 nm)) [1] | ELISA absorbance at 450 nm, serum dilution 1:20 (absorbance (450 nm)) [2] | ELISA absorbance at 450 nm, serum dilution 1:60 (absorbance (450 nm)) [2] | ELISA absorbance at 450 nm, serum dilution 1:180 (absorbance (450 nm)) [2] | ELISA absorbance at 450 nm, serum dilution 1:540 (absorbance (450 nm)) [2]
1 | Serum of mice given no immunogen (control of Table 22.1) (antibody) | 0.105 | 0.72 | 0.049 | 0.036 | – | – | – | – | – | –
2 | Serum of mice given no immunogen (control of Table 22.2) (antibody) | 0.042 | 0.004 | -0.003 | 0.007 | 0.006 | 0.005 | – | – | – | –
3 | Serum of mice given no immunogen (control of Table 22.3) (antibody) | – | – | – | – | – | – | 0.084 | 0.045 | 0.004 | -0.003
